Measurements published in patent publication US20260043816A1 (AC IMMUNE, published 2026).
Substitutions are numbered along the chain they refer to. Square brackets hold non-standard residues; d marks the D form. Ends that are not written are not given here. * marks the point of attachment. Biotin = O=C1N[C@H]2[C@H](CS[C@H]2CCCCC(=O)*)N1; pS = N[C@@H](COP(=O)(O)O)C(=O)O

Assays:
[1] = molecular target: T1, recombinant full length TDP-43 (SEQ ID NO: 1, FL TDP-43) (human, UniProt Q13148 1-414); test: pairing sandwich ELISA, biotinylated antibody as detector, FL TDP-43 titrated
T1 construct: also called recombinant human soluble FL TDP-43; soluble human TDP-43
Procedure: (§1) The capacity of antibodies to bind phospho TDP-43 and TDP-43 was determined using a sandwich enzyme-linked immunosorbent assay (ELISA), where each antibody was paired with a second TDP-43 antibody previously characterized for TDP-43 binding and performance in sandwich immunoassays, ACI-7071-809F12-Ab1-rec2 (as described in WO2020234473) or ACI-7069-636E5-Ab1 (as described in WO2020234473). ELISA plates (Nunc™ Edge™ 96-Well, Non-Treated, Flat-Bottom Microplate, ThermoFisher Scientific, Denmark) were coated with 5 μg/mL of anti-phospho TDP-43 or anti-TDP-43 antibodies in carbo/bicarbonate buffer, overnight at 4° C. Plates were then washed with 0.05% Tween-20/PBS and blocked with 1% bovine serum albumin (BSA) in 0.05% Tween-20/PBS for 1 hour at 37° C. The plates were then washed again as described above.
(§2) Serial-dilutions of target peptide or protein were then added to the plates. For assays with anti-phospho TDP-43 antibodies, one of four peptide conjugates (peptides 11, 23, 28, or 29) each composed of two TDP-43 sequences, one phosphorylated and one non-phosphorylated, conjugated together with a Trioxatridecan-succinamic acid linker (Ttds, binding regions and sequences shown in Table 4) were used. Peptides 11, 23, 28, and 29 were added in a 10-fold serial dilution starting at 0.5 μM. […] The plate was read at 450 nm using an ELISA plate reader (Tecan, Switzerland).

[2] = molecular target: T1, recombinant full length TDP-43 (SEQ ID …); test: pairing sandwich ELISA, antibody coated as capture, FL TDP-43 titrated
Procedure: as §1
Serial-dilutions of target peptide or protein were then added to the plates. For assays with anti-phospho TDP-43 antibodies, one of four peptide conjugates (peptides 11, 23, 28, or 29) each composed of two TDP-43 sequences, one phosphorylated and one non-phosphorylated, conjugated together with a Trioxatridecan-succinamic acid linker (Ttds, binding regions and sequences shown in Table 4) were used. Peptides 11, 23, 28, and 29 were added in a 10-fold serial dilution starting at 0.5 μM. For assays with TDP-43 antibodies only, recombinant full length TDP-43 (SEQ ID NO: 1, FL TDP-43) was diluted 3-fold from 21.9 pM. Plates were incubated for 1 hour at 37° C., and then washed. […] PEG-biotinylated phospho TDP-43 or TDP-43 antibodies were then respectively added to the wells and incubated for 1 hour at 37° C., after which the plates were washed. Horseradish peroxidase (HRP)-conjugated streptavidin (R&D Systems, Switzerland) was added at 1/200 dilution in 1% BSA and 0.05% Tween-20/PBS for 45 min at room temperature. […] The plate was read at 450 nm using an ELISA plate reader (Tecan, Switzerland).

[3] = molecular target: T2, biotinylated TDP-43 phospho peptide 370-384 (pS375 and pS379) (human); test: capture ELISA, antibody on anti-mouse IgG, biotinylated peptide
T2 peptide: Biotin-GNNSY[pS]GSN[pS]GAAIG
Procedure: (§3) Briefly, for capture detection in ELISA, wells of 96-well plates were coated with 5 μg/mL goat anti-mouse IgG (Fc gamma fragment specific), in carbonate buffer, overnight at 4° C. Plates were then washed with 0.05% Tween-20/PBS and blocked with 1% bovine serum albumin (BSA) in 0.05% Tween-20/PBS for 1 hour at 37° C. Phospho TDP-43 antibodies were then added at 5 μg/mL and incubated for 2 hours at 37° C. after which the plates were washed as described above. Biotinylated peptides representing each of the phospho sites, or non-phosphorylated, were incubated at 0.5 mM in 0.1% BSA and PBS for 1 hour at 37° C. after which the plates were washed. A streptavidin-HRP-conjugate (R&D Systems, Minnesota, United States) was added at 1/200 dilution in 0.05% Tween-20/1% BSA in PBS for 45 minutes in the dark at ambient temperature. After the final wash, plates were incubated with TMB (Sigma-Aldrich, Switzerland), an HRP substrate solution, and read at 405 nm using an ELISA plate reader (Tecan, Switzerland).

[4] = molecular target: T3, biotinylated non-phosphorylated TDP-43 peptide 366-414 (human, biotin on the N-terminus); test: as above
T3 peptide: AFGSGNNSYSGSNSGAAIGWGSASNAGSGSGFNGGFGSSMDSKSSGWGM
Procedure: as §3

[5] = molecular target: T4, biotinylated TDP-43 phospho peptide 370-384 (pS375) (human); test: as above
T4 peptide: Biotin-GNNSY[pS]GSNSGAAIG
Procedure: as §3

[6] = molecular target: T5, biotinylated TDP-43 phospho peptide 370-384 (pS379) (human); test: as above
T5 peptide: Biotin-GNNSYSGSN[pS]GAAIG
Procedure: as §3

[7] = molecular target: T6, biotinylated TDP-43 phospho peptide 401-413 (pS410) (human); test: as above
T6 peptide: Biotin-FGSSMDSKS[pS]GWG
Procedure: as §3

[8] = molecular target: T7, biotinylated TDP-43 phospho peptide 401-413 (pS409 and pS410) (human); test: as above
T7 peptide: Biotin-FGSSMDSK[pS][pS]GWG
Procedure: as §3

[9] = molecular target: T8, biotinylated TDP-43 phospho peptide 401-413 (pS409) (human); test: as above
T8 peptide: Biotin-FGSSMDSK[pS]SGWG
Procedure: as §3

[10] = molecular target: T9, Peptide 29 (human, phosphoserine at pS409 and pS410 (human TDP-43 numbering, in the SEQ ID NO: 9 part); Trioxatridecan-succinamic acid (Ttds) linker between SEQ ID NO: 7 and SEQ ID NO: 9); test: SPR Biacore 8K, antibody captured, peptide analyte, single-cycle kinetics, 1:1 fit
T9 peptide: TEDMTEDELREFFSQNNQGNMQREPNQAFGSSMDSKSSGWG
Procedure: (§4) Each cycle started with the non-covalent capture of the antibody which were diluted in running buffer to a final concentration of 5 μg/mL and injected for 120 sec with a flow rate of 10 μL/min. Antibodies being measured were captured in channels […], leaving Fc 1 as a blank Fc. Capture levels were evaluated following a 120 sec stabilization period after each antibody injection. ACI-7071-809F12-Ab1-rec2 was used as control, binding to the non-phosphorylated sequences represented in peptides 28 and 29.
(§5) Injections of peptides 28 or 29 were performed using single-cycle kinetics with increasing concentrations ranging from 1.2 to 100 nM prepared as a 3-fold serial dilution. Injections were performed with contact times of 300 sec/injection at a flow rate of 30 μL/min. A dissociation phase of 900 sec followed the final injection. Sensor surface was regenerated by two injection of 10 mM Glycine-HCl pH 1.7 at a flow rate of 10 μL/min for 60 sec, followed by a stabilization period of 120 sec. Results obtained from single-cycle kinetics were double-referenced using the blank Fc 1 and buffer cycles and evaluated by Biacore 8K evaluation software (Cytiva). The following kinetic parameters were obtained using the 1:1 binding fit model with variable Reflective Index (RI): association rate constant (ka), dissociation rate constant (kd), affinity constant (KD) and saturation response (Rmax).

[11] = molecular target: T9, Peptide 29; test: pairing sandwich ELISA, biotinylated antibody as detector, target titrated
Procedure: as §1, §2

[12] = molecular target: T9, Peptide 29; test: pairing sandwich ELISA, antibody coated as capture, target titrated
Procedure: as §1, §2

[13] = molecular target: T9, Peptide 29; test: SPR Biacore 8K, antibody from purified hybridoma supernatant captured, peptide analyte, 1:1 fit
Procedure: as §4, §5

B1: ACI-7069-636E5-Ab1 (as described in WO2020234473) (antibody, V domains shown)
VH: EVHLVESGGDLVMPGGSLKLSCAASGFTFSNYGMSWVRQTPDKRLEWVATISSGGKYINYLDSLKGRFTISRDNAKNTLYLQMSSLKSEDTAMYYCAKDYGSGWAWFAYWGQGTLVTVSA
VL: QLVLTQSSSASFSLGASAKLTCTLSSQHSTYTIEWYQQQPLKPPKYVMELKKDGSHSTGDGIPDRFSGSSSGADRYLSISNIQPEDEAIYICGVGDTIKEQFVYVFGGGTKVTVL
notes: also called 636E5B8
Binder B1 has an EC50 [1] of 0.07 nM and an EC50 [2] of 1.16 nM.

B2: ACI-8071-943.7D3-Ab1 (antibody, V domains shown)
VH: QVQLQQPGTELVKPGASVKLSCKASGYTFTRYWMHWMKQRPGQGLEWIGNINPSDGGTNYNEKFKNKASLTVDKSSSTAYMQLSRLTSEDSAVYYCARRGSGYWGQGTTLTVSS
VL: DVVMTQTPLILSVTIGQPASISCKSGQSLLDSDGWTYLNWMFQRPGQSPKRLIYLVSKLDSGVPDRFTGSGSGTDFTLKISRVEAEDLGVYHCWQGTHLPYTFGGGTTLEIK
notes: also called 943.7D3E2; pS403/pS404 TDP-43 antibody
B2: no binding (tested: peptide at 0.5 mM) [3]; no binding (tested: peptide at 0.5 mM) [4]; no binding (tested: peptide at 0.5 mM) [5]. B2: no binding (tested: peptide at 0.5 mM) [6].

B3: ACI-8071-943.2E6-Ab1 (antibody, V domains shown)
VH: B2 VH with R31S, M37V, S54I, D55N, G56S, G57D, N66T, S69T, R85S
VL: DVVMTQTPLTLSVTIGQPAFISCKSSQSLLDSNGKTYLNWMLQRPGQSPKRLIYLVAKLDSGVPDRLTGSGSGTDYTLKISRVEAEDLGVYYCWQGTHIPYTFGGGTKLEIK
notes: also called 943.2E6E10; pS403/pS404 TDP-43 antibody
B3: no binding (tested: peptide at 0.5 mM) [3]; no binding (tested: peptide at 0.5 mM) [7]; no binding (tested: peptide at 0.5 mM) [4]. B3: no binding (tested: peptide at 0.5 mM) [5]; no binding (tested: peptide at 0.5 mM) [8]; no binding (tested: peptide at 0.5 mM) [6]. B3: no binding (tested: peptide at 0.5 mM) [9].

B4: ACI-8071-943.12A8-Ab1 (antibody, V domains shown)
VH: EVQLVESGGGLVHPKGSLQLSCAASGFTFNTYTMHWVRQAPGKGLEWVARIRSKRSNYATYYADSVKDRFTISRDDSQSMLYLQMNNLKTEDTAIYYCVRGTGSYWGQGTSVTVSS
VL: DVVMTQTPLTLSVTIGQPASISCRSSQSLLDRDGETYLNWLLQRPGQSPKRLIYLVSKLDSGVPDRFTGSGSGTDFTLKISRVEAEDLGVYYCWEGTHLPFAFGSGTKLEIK
notes: also called 943.12A8B4; pS403/pS404 TDP-43 antibody
B4: no binding (tested: peptide at 0.5 mM) [3]; no binding (tested: peptide at 0.5 mM) [7]; no binding (tested: peptide at 0.5 mM) [4]. B4: no binding (tested: peptide at 0.5 mM) [5]; no binding (tested: peptide at 0.5 mM) [8]; no binding (tested: peptide at 0.5 mM) [6]. B4: no binding (tested: peptide at 0.5 mM) [9].

B5: ACI-8071-943.7H9-Ab1 (antibody, V domains shown)
VH: EIQLQQSGTVMARPGASVKMSCKTSGYIFTNYWMHWVKQRPGQGLDWIGTIYPGNSDTDYNQNFKGKAKLTAVTSASTAYMELSSLTNEDSAVYFCIRGGWGGFPYWGQGTLVTVSA
VL: DVVMTQIPLSLPVSLGDQASISCRSSQRLVHSNGNTYLHWYLQKPGQSPKFLIHKVSNRFSGVPDRFSGSGSGTDFTLKIRRVEAEDLGVYFCCQSTHVPYTFGGGTKLEIK
notes: also called 943.7H9H8; pS403/pS404 TDP-43 antibody
B5: no binding (tested: peptide at 0.5 mM) [3]; no binding (tested: peptide at 0.5 mM) [4]; no binding (tested: peptide at 0.5 mM) [5]. B5: no binding (tested: peptide at 0.5 mM) [6].

B6: ACI-8072-946.8H6-Ab1 (antibody, V domains shown)
VH: EEHLVESGGGLVKPGGSLKLSCAASGFTFSDYGMQWVRQAPEKGLEWVAYISSGSSTIYYEDTVKGRFTISRDNAKNTLFLQMTSLRSEDTAMYYCVRPYDNYGQGTLVTVSA
VL: DVLMTQTPLSLPVSLGDQASISCRSSQSIVHSNGNTYLEWYLQKPGQSPKLLIYKVSNRFSGVPDRFSGSGSGTDFTLKISRVEAEDVGVYYCFQGSHVPRTFGGGTKLEIK
notes: also called 946.8H6D10; pS409/pS410 TDP-43 antibody
B6 showed a Kd [10] of 3.28 nM, a koff [10] of 0.00469 s⁻¹ and a kon [10] of 1.43e+06 M⁻¹ s⁻¹. The EC50 [11] was 1.12 nM and the EC50 [12] was 0.111 nM.

B7: ACI-8072-946.9D6-Ab1 (antibody, V domains shown)
VH: B6 VH
VL: DIVLTQSPASLAVSLGQRATISCRASKSVSTSGYSYMHWYQQKPGQPPKLLIYLASNLESGVPARFSGSGSGTDFTLNIHPVEEEDAATYYCQHSRELPWTFGGGTKLEIK
notes: Data marked * were generated with hybridoma / purified hybridoma supernatant; also called 946.9D6F3
Binder B7 has a Kd [13] of 2.29 nM, a koff [13] of 0.000707 s⁻¹ and a kon [13] of 309000 M⁻¹ s⁻¹.

B8: ACI-8072-946.4G5-Ab1 (antibody, V domains shown)
VH: B6 VH with E2V, H3Q, Q35H, E61A, I70M, V97S, D101G
VL: B6 VL with V88L
notes: also called 946.4G5F1; pS409/pS410 TDP-43 antibody
B8 gave a Kd [10] of 1.68 nM, a koff [10] of 0.000817 s⁻¹ and a kon [10] of 487000 M⁻¹ s⁻¹. It also gave an EC50 [11] of 1.96 nM and an EC50 [12] of 0.196 nM.
